# Data reported in the RNAGym collection of RNA variant scans (doi:10.1073/pnas.2313332121).
# B1: TPR t1 (parent)
# chain: GACCAAUCUGCCCUCAGAGCUCGAGAACAUCUUCGGAUGCAGAGGAGGCAGGCUUCGGUGGCGCGAUAGCGCCAACGUCCUCAACCUCCAAUGCAUCCCACCACAUGAUGAUGCCUGAAGAGCCUUGGUUUUUUG
# Variants of: B1
# Assay: polymerase ribozyme fitness, log enrichment relative to wild type (log ratio); higher = more active; in vitro selection for triplet polymerase activity
# In short: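 Mutant libraries for each subunit of a heterodimeric triplet polymerase ribozyme were made by PCR and then transcribed. Each library underwent one round of in vitro selection in triplicate: annealing with a biotinylated primer, the partner subunit and triplets, frozen incubation at −7 °C, gel excision of extended constructs, streptavidin-bead capture and RT-PCR. Input and output libraries were Illumina-sequenced, and only genotypes with ≥10 input reads and ≥1 read per output were kept. Fitness is the logarithm, base 2, of genotype enrichment over wild-type enrichment, computed from inverse-variance-weighted replicate averages.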
row,Variant,polymerase ribozyme fitness (log ratio)
1,GACCAAACUGCCCUCAGAGCUCGAGAACAUCUUCGGAUGCAGAGGAGGCAGGCUUCGGUGGCGCGAUAGCGCAAACGUCCUCAACCUGCAAUGCAUCCCACCACAUGAUGUUGCCUGAAGAGCCUUGGGUUUUUG [U7A C73A C88G A111U U129G],-6.86
2,GACCAAACUGCCCUCAGAGCUCGAGAACAUCUUAGGAUGCAGAGGAGGCAGGCUUCGGUGUCGCGAUAGCGCCAACGUCCUCAACCUCCAAUGCAUUCCACCACAUGAUGAUGCCUGAAGAGCCUUGGUUUUUUG [U7A C34A G61U C97U],-2.06
3,GACCAAACUGCCCUCAGAGCUCGAGAACAUCUUCGGAUGCAGAGGAGGUAGUCUUCGGUGACGCGAUAGCGCCAACGUCCUCAACCUCCAAUGCAUCCCACCACAUGAUGAUGCCUGAAAAGCCUUGGUUUUUUG [U7A C49U G52U G61A G120A],0.469
4,GACCAAACUGCCCUCAGAGUUCGAGAACAUCUUCGGAUGCAGAGGAGGCAGGCUUCGGUGGCGCGAUAGCGCCAACGUCCUCAACCUCCAAUGCAUCCCACCACAUGAUGAUGCCUGAAUAGCCUUGGUUUUUUG [U7A C20U G120U],-0.3
5,GACCAAACUGCCCUCAGAGCUCGAGAACAUCUUCGGAUGCAGAGGAGGCAGGUUUCGGGUGCGCGAUAGCGGCAACGUCCUCAACCUCCAAUGCAUCCCACCACAUGAUGAUGCCUGAAGAGCCUUGGUUUUUUG [U7A C53U U59G G60U C72G],-0.651
6,GACCAAACUGCCCUCAGAGCUCGAGAACAUCUUCGGAUGCAGAGGAGGCAGGCUUCGGUGGCGCGAUAGCGACAACGUCCUCAACCUCCAAUGCAUCCCACCACAUGAUGAUGCCUGAAGAGCCUUGGUUUUUUG [U7A C72A],-0.427
7,GACCAAACUGCCUUCAGAGCUCGAGAACAUCUUCGGAUGCAGAGGAGGCAGGCUUCGGUGGCGCGAUAGCACCAACGUCCUCAACCUCCAAUGCAUCCCACCACAUGAUGAUGCUUGAAGAGCCUUGAUUUUUUG [U7A C13U G71A C115U G128A],-2.21
8,GACCAAACUCCCCUCAGAGCACGAGAACAUCUUCGGAUGCAGAGGAGGCAGGCUUUGGUGGCGCGAUAGCGCCAACGUCCUCAACCUCCAAUGCAUCCCACCACAUGAUGAUGCCUGAAGAGCCUUGGUUUUUUG [U7A G10C U21A C56U],-2.02
9,GACCAAACUGCCCUAAGAGCUCGAGAACAUCUUCGGAUGCCGAGGAGGCAGGCUUCGGUGGCGCGCUAGCGCCAACGUCCUCAACCUCCAAUGCAUCCCACCACAUGAUGAUGCCUGAAGAGCCUUGGUUUUUUG [U7A C15A A41C A66C],-4.5
10,GACCAAACUUCCCUCAGAGCUCGAGAACAUCUUCGGAUGCAGAGGAGGCAGGCUUCGGUGGCGGGAUAGCGCCAACGUCCUCAACCUCCAAUACAUCCCACCACAUGAUGAUGCCUGAAGAGCCUUGGUUUUUUG [U7A G10U C64G G93A],-6.26
11,GACCAAACUGCCCUGAGAGCUCGAGAACAUCUUCGGAUGCAGAGGAGGCAGGCUUCGGUGGCGCGAUAGCGCCAACGUCCUCAACCUUCAAUGCAUCCCACCACAUGAUGAUGCCUGAAGAGCUUUGGUUUUUUG [U7A C15G C88U C124U],0.702
12,GACCAAACUGCCCUCAGAGCUCGAGAACAUCUUCGGAUGCAGAGGAGGCAGGCUUCGGUGGUGCGAUAGCGCCAACGUCCUCAACCUCCAAUGCAUCCCACCACAUGAUGAUGCCUGAAGAGCCUUGGAUUUUUG [U7A C62U U129A],-0.65
13,GACCAAACUGCCCUCAGAGCUCGAGAACAUCUUCGGAUGCAGAGGAGGCAGGCUUCGGUGGCGCGAUAGCGCCAACGUCCUAAACCUCCAAUGCAUCCCACCACAUGAUGAUGCCCGAAGAGACUUGGUUUUUUG [U7A C82A U116C C123A],-2.73
14,GACCAAACUGCCCUCAGAGCUCGAGAACAUCUUCGGAUGCAGAGGAGGCAGGCUUGGGUGGCGCGAUAGCGCCAACGUCCUCAACCUCCAAUGCAUCCCAUCACAUGAUGAUGCCUGAAGAGCCUUGGUUUUUUG [U7A C56G C101U],0.801
15,GACCAAACUGCCCUCAGAGCUCGAGAACAUCUUCGGAUGCAGAGGAGGCAGGCUUAGGUGGCGCCAUAGCACCAACGUCCUCAACCUCCAAUGCAUCCCACCACAUGAUGAUGCCUGAAGAGCCUUGGUUUUUUG [U7A C56A G65C G71A],-7.51
16,GACCAAACUGCCCUCAGAGCUCGAGAACAUCUUCGGAUGUAGAGGAGUCAGGGUUCGGUGGCGCGAUAGCGCCAACGUCCUCAAACUCCAAUGCAUCCCACCACAUGAUGAUGCCUGAUGAGCCUUGGUUUUUUG [U7A C40U G48U C53G C85A A119U],-0.816
17,GACCAAACUGCCCUCAGAGCUCGAGAACAUCUUCGGAUGCAGAGGAGGCAGGCUUCGGUGGCGUGAUAGCGCCAACGUCCUCAACCUCGAUUGCAUUCCACCACAUGAUGAUGCUUGAAGAGCCUUGGUUUUUUG [U7A C64U C89G A91U C97U C115U],-2.72
18,GACCAAACUGCCCUCAGAGCUCGAGAACAUCUUCGGAUGCAGAGGAGGCAGGCUUCGGUGGCGCGAUAGCGGCAACGUCCUCAACCUAGAAUGCAUCCCACAACAUAAUGAUACCUGAAGAGCCUUGGUUUUUUG [U7A C72G C88A C89G C102A G107A G113A],-6.44
19,GACCAAACUGCCCUCAGAGCUCGAGAACAUCUUCGGAUGCAGAGGAGGCAGGCUUCGGUGGCGCGAUAGUGCCAACGUCCUCAACCUCCAAUGCAUCCCACCACAUGAUGAUGCCUGAAGAGCCUUGGUUUUUUG [U7A C70U],-0.0171
20,GACCAAACUGCCCUCAGAGCUCGAGAACAUCUUCGGAUGCAGAGGAGGCAGGCUUCGGUGGCGCGAUAGUGCCAACUUCCUCAACCUCCAACGCAUCCCACCACAUGAUGAUGCCUCAAGAGCCUUGGUUUUUUG [U7A C70U G77U U92C G117C],-5.47
21,GACCAAACUGCCCUCAGAGCUCGAGAACAUCUUCGGAUGCAGAGGAGGCAGGCUUCGGUGGCGCGAUAGCGCCAACGUCCUCAACCUCCAAUGCAUCCCAACACAUGAUGAUGCCUGAAGAGCCUUGGUUUUUUG [U7A C101A],-1.43
